The data set concerns the molecule itself. The experiment in a line: AUC.

In general, stoichiometry N refers to the number of molecules, sites or subunits per partner or assembly.

B1: SYCE3 (purified recombinant protein) (natural protein, Mus musculus, UniProt B5KM66 1-88, looked up)
chain: MADSDPGERSYDNMLKMLSDLNKDLEKLLEEMEKISVQATWMAYDMVVMRTNPTLAESMRRLEDAFLNCKEEMEKNWQELLTETKRKQ
As to B1, the “stoichiometry N” value was determined as 2.

Values taken from article PMC4231325 (Scientific Reports, 2014).
